Measurements as given in patent US7183387 (Genentech, dated 2007).

T1: human FcγRIIA-Arg131 α subunit extracellular domain-His6-GST fusion (human, UniProt P12318 34-217)
T1 construct: extracellular domain; also called FcγRIIA-R131; not shown: glutathione S transferase (GST)
T1 sequence: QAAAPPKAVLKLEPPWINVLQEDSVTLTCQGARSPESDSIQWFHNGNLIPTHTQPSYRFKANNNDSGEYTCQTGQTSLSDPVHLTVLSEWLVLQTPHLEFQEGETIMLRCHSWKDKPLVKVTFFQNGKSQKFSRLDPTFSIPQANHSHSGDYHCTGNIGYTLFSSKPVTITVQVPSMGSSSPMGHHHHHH

T2: human FcγRIIB α subunit extracellular domain-6His-GST fusion (human, UniProt P31994 43-217)
T2 construct: not shown: glutathione S-transferase (GST)
T2 sequence: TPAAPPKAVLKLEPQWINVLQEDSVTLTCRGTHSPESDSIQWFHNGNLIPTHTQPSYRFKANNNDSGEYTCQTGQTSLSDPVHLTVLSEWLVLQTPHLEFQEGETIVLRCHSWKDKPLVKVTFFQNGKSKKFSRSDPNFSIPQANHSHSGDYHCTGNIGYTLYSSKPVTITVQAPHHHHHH

T3: human FcγRIIA-R131 α subunit extracellular domain-6His-GST fusion (human, UniProt P12318 34-217)
T3 construct: also called FcγRIIA-Arg131; not shown: glutathione S-transferase (GST)
T3 sequence: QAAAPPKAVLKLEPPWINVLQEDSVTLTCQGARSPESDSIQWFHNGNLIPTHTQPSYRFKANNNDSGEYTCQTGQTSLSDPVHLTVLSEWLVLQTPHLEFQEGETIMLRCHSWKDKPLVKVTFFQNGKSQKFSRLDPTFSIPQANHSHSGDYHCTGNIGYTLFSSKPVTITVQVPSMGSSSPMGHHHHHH

T4: human FcγRIIB α subunit extracellular domain-His6-GST fusion (human, UniProt P31994 43-217)
T4 construct: extracellular domain; also called CD32; not shown: glutathione S transferase (GST)
T4 sequence: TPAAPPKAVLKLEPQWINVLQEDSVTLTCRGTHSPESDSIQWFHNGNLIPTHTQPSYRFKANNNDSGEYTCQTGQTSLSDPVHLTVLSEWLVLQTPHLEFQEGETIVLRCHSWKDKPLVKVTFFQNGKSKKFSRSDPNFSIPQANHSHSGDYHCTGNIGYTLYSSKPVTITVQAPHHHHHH


Experiments:
[1] = target: T5, human FcγRIIIA-Phe158 α subunit extracellular domain-His6-GST fusion (human, UniProt P08637 17-208); experiment: hexamer ELISA
T5 construct: extracellular domain; also called FcγRIIIA-F158; CD16; not shown: glutathione S transferase (GST)
T5 sequence (P08637 other isoform, or with tags, fused parts or gaps): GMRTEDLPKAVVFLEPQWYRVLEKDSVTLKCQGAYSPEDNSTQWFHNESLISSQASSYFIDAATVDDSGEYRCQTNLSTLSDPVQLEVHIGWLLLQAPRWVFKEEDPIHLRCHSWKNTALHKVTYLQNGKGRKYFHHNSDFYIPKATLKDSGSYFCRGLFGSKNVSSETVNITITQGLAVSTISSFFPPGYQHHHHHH

[2] = target: T1, human FcγRIIA-Arg131 α subunit …; experiment: hexamer ELISA
[3] = target: T6, human FcγRI (FcγRIA) α subunit extracellular domain-His6-GST fusion (human, UniProt P12314 16-292); experiment: monomeric IgG; ELISA on receptor-GST and THP-1 cells, averaged
T6 construct: Reported FcγRI values are the average of the plate ELISA on this fusion and of a flow cytometry assay on THP-1 cells; also called GST-FcγRIA; not shown: glutathione S-transferase (GST)
T6 sequence (P12314 other isoform, or with tags, fused parts or gaps, form in doubt): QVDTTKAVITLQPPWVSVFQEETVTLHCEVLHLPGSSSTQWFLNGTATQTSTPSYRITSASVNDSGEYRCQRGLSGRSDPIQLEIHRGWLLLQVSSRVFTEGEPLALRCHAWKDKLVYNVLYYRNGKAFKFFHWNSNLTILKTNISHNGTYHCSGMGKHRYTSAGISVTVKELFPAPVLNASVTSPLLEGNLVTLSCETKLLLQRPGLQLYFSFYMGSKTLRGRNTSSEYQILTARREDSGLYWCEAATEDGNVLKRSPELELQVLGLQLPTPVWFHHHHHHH

[4] = target: T2, human FcγRIIB α subunit extracellular …; experiment: ELISA, IgG:IgE hexamers on receptor-GST
[5] = target: T3, human FcγRIIA-R131 α subunit …; experiment: ELISA, IgG:IgE hexamers on receptor-GST
[6] = target: T7, human FcγRIIIA-F158 α subunit extracellular domain-6His-GST fusion (human, UniProt P08637 17-208); experiment: ELISA, IgG:IgE hexamers on receptor-GST
T7 construct: also called FcγRIIIA-Phe158; not shown: glutathione S-transferase (GST)
T7 sequence (P08637 other isoform, or with tags, fused parts or gaps, form in doubt): as the sequence (P08637 other isoform, or with tags, fused parts or gaps) above

[7] = target: T8, human FcγRIA α subunit extracellular domain-His6-GST fusion (human, UniProt P12314 16-292); experiment: FcγRI ELISA and THP-1 cells, averaged
T8 construct: extracellular domain; also called GST-FcγRIA; CD64; not shown: glutathione S transferase (GST)
T8 sequence (P12314 other isoform, or with tags, fused parts or gaps): as the sequence (P12314 other isoform, or with tags, fused parts or gaps, form in doubt) above

[8] = target: T9, human neonatal Fc receptor (FcRn), biotinylated (human, UniProt P55899 24-297; P61769 21-119, biotinylated (biotin-X-NHS)); experiment: FcRn ELISA, pH 6.0;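 further: Streptavidin-captured FcRn plates, IgG variants titrated 2 h at pH 6.0, peroxidase anti-human IgG read at 450 nm, variant over standard concentration at the standard curve mid-point absorbance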
T9 construct: captured on streptavidin plates

[9] = target: T5, human FcγRIIIA-Phe158 α subunit …; experiment: hexamer ELISA; remark: listed apart in the source
[10] = target: T1, human FcγRIIA-Arg131 α subunit …; experiment: hexamer ELISA; remark: listed apart in the source
[11] = target: T4, human FcγRIIB α subunit extracellular …; experiment: hexamer ELISA

Row | Binder | reduction in binding against native IgG1 [1] [%] | reduction in binding against native IgG1 [2] [%] | ratio to native IgG1 [3] | ratio to native IgG1 [4] | ratio to native IgG1 [5] | ratio to native IgG1 [6] | ratio to native IgG1 [7] [ratio] | ratio to native IgG1 [8] [ratio] | ratio to native IgG1 [9] [ratio] | ratio to native IgG1 [10] [ratio] | ratio to native IgG1 [11] [ratio]
1 | E27 IgG1 variant K334(353)M (antibody, also called IG2 190) heavy: not shown light: DIQLTQSPSSLSASVGDRVTITCRASKPVDGEGDSYLNWYQQKPGKAPKLLIYAASYLESGVPSRFSGSGSGTDFTLTISSLQPEDFATYYCQQSHEDPYTFGQGTKVEIKRTVAAPSVFIFPPSDEQLKSGTASVVCLLNNFYPREAKVQWKVDNALQSGNSQESVTEQDSKDSTYSLSSTLTLSKADYEKHKVYACEVTHQGLSSPVTKSFNRGEC |  |  | 1.18 | 0.93 | 0.99 | 0.49 |  |  |  |  | 
2 | E27 IgG1 variant K290(307)E (antibody, also called IG2 77) heavy: not shown light: DIQLTQSPSSLSASVGDRVTITCRASKPVDGEGDSYLNWYQQKPGKAPKLLIYAASYLESGVPSRFSGSGSGTDFTLTISSLQPEDFATYYCQQSHEDPYTFGQGTKVEIKRTVAAPSVFIFPPSDEQLKSGTASVVCLLNNFYPREAKVQWKVDNALQSGNSQESVTEQDSKDSTYSLSSTLTLSKADYEKHKVYACEVTHQGLSSPVTKSFNRGEC |  |  | 1.14 | 1.2 | 1.1 | 1.3 |  |  |  |  | 
3 | E27 IgG1 variant K334(353)W (antibody) heavy: not shown light: DIQLTQSPSSLSASVGDRVTITCRASKPVDGEGDSYLNWYQQKPGKAPKLLIYAASYLESGVPSRFSGSGSGTDFTLTISSLQPEDFATYYCQQSHEDPYTFGQGTKVEIKRTVAAPSVFIFPPSDEQLKSGTASVVCLLNNFYPREAKVQWKVDNALQSGNSQESVTEQDSKDSTYSLSSTLTLSKADYEKHKVYACEVTHQGLSSPVTKSFNRGEC |  |  | 1.16 | 0.91 | 0.94 | 1.07 |  |  |  |  | 
4 | E27 IgG1 variant K290(307)R (antibody, also called IG2 78) heavy: not shown light: DIQLTQSPSSLSASVGDRVTITCRASKPVDGEGDSYLNWYQQKPGKAPKLLIYAASYLESGVPSRFSGSGSGTDFTLTISSLQPEDFATYYCQQSHEDPYTFGQGTKVEIKRTVAAPSVFIFPPSDEQLKSGTASVVCLLNNFYPREAKVQWKVDNALQSGNSQESVTEQDSKDSTYSLSSTLTLSKADYEKHKVYACEVTHQGLSSPVTKSFNRGEC |  |  | 1.25 | 1.15 | 1.05 | 1.08 |  |  |  |  | 
5 | E27 IgG1 variant K334(353)Y (antibody) heavy: not shown light: DIQLTQSPSSLSASVGDRVTITCRASKPVDGEGDSYLNWYQQKPGKAPKLLIYAASYLESGVPSRFSGSGSGTDFTLTISSLQPEDFATYYCQQSHEDPYTFGQGTKVEIKRTVAAPSVFIFPPSDEQLKSGTASVVCLLNNFYPREAKVQWKVDNALQSGNSQESVTEQDSKDSTYSLSSTLTLSKADYEKHKVYACEVTHQGLSSPVTKSFNRGEC |  |  | 1.15 | 1.05 | 1.08 | 1.31 |  |  |  |  | 
6 | E27 IgG1 variant K334(353)H (antibody) heavy: not shown light: DIQLTQSPSSLSASVGDRVTITCRASKPVDGEGDSYLNWYQQKPGKAPKLLIYAASYLESGVPSRFSGSGSGTDFTLTISSLQPEDFATYYCQQSHEDPYTFGQGTKVEIKRTVAAPSVFIFPPSDEQLKSGTASVVCLLNNFYPREAKVQWKVDNALQSGNSQESVTEQDSKDSTYSLSSTLTLSKADYEKHKVYACEVTHQGLSSPVTKSFNRGEC |  |  | 1.11 | 1.07 | 1.09 | 1.26 |  |  |  |  | 
7 | E27 IgG1 variant A339(359)T (antibody, also called IG2 273) heavy: not shown light: DIQLTQSPSSLSASVGDRVTITCRASKPVDGEGDSYLNWYQQKPGKAPKLLIYAASYLESGVPSRFSGSGSGTDFTLTISSLQPEDFATYYCQQSHEDPYTFGQGTKVEIKRTVAAPSVFIFPPSDEQLKSGTASVVCLLNNFYPREAKVQWKVDNALQSGNSQESVTEQDSKDSTYSLSSTLTLSKADYEKHKVYACEVTHQGLSSPVTKSFNRGEC |  |  | 1.23 | 1.23 | 1.11 | 1.42 |  |  |  |  | 

Further lines, results first:

Row | reduction in binding against native IgG1 [1] [%] | reduction in binding against native IgG1 [2] [%] | ratio to native IgG1 [3] | ratio to native IgG1 [4] | ratio to native IgG1 [5] | ratio to native IgG1 [6] | ratio to native IgG1 [7] [ratio] | ratio to native IgG1 [8] [ratio] | ratio to native IgG1 [9] [ratio] | ratio to native IgG1 [10] [ratio] | ratio to native IgG1 [11] [ratio] | Binder
8 | 30 | 30 |  |  |  |  |  |  |  |  |  | anti-IgE E27 IgG1 Arg416 changed to Ala (antibody, named only by its position) heavy: not shown light: DIQLTQSPSSLSASVGDRVTITCRASKPVDGEGDSYLNWYQQKPGKAPKLLIYAASYLESGVPSRFSGSGSGTDFTLTISSLQPEDFATYYCQQSHEDPYTFGQGTKVEIKRTVAAPSVFIFPPSDEQLKSGTASVVCLLNNFYPREAKVQWKVDNALQSGNSQESVTEQDSKDSTYSLSSTLTLSKADYEKHKVYACEVTHQGLSSPVTKSFNRGEC
9 | 70 |  |  |  |  |  | 1.11 | 0.85 | 0.31 | 1.08 | 1.07 | anti-IgE E27 IgG1 Glu293Ala (antibody) heavy: not shown light: DIQLTQSPSSLSASVGDRVTITCRASKPVDGEGDSYLNWYQQKPGKAPKLLIYAASYLESGVPSRFSGSGSGTDFTLTISSLQPEDFATYYCQQSHEDPYTFGQGTKVEIKRTVAAPSVFIFPPSDEQLKSGTASVVCLLNNFYPREAKVQWKVDNALQSGNSQESVTEQDSKDSTYSLSSTLTLSKADYEKHKVYACEVTHQGLSSPVTKSFNRGEC
10 | 50 |  |  |  |  |  | 1.03 | 0.79 | 0.55 | 0.97 | 0.86 | anti-IgE E27 IgG1 Tyr296Phe (antibody) heavy: not shown light: DIQLTQSPSSLSASVGDRVTITCRASKPVDGEGDSYLNWYQQKPGKAPKLLIYAASYLESGVPSRFSGSGSGTDFTLTISSLQPEDFATYYCQQSHEDPYTFGQGTKVEIKRTVAAPSVFIFPPSDEQLKSGTASVVCLLNNFYPREAKVQWKVDNALQSGNSQESVTEQDSKDSTYSLSSTLTLSKADYEKHKVYACEVTHQGLSSPVTKSFNRGEC
